The values below come from US20240352088A1 (AICHI PREFECTURE, published 2024).

This test has as its target T1, IL-6 (interleukin-6) (human, UniProt P05231 30-212).
T1 construct: also called recombinant IL-6; human IL-6
In words: plasma IL-6 by ELISA 1, 2 and 4 h after i.v. human IL-6 (2 µg) in NSG mice given the CAR-T cells. As to the method:
An NALM6 cell line stably transduced with EGFP-P2A-Luc2 (GL) (referred to as a “NALM6-GL cell line”) was administered at 2.5×10⁶ cells/mouse into the tail vein of the NSG mice (Charles River Laboratories Japan, JAX Mice Stock No: 005557). After 10 days, control cells transduced with only a CAR gene or GP130-IL6R-ca7R-transduced CAR-T cells were administered into the tail vein at 3×10⁶ cells/mouse. After another 7 days, 2 μg of human IL-6 was intravenously administered, and blood was collected at 1 hour, 2 hours, and 4 hours after the injection to measure the concentration of IL-6 in plasma by ELISA. Note that the control cells or GP130-IL6R-ca7R-transduced CAR-T cells used for the administration into the NSG mice were stimulated again with the NALM6-GL cell line on day 7 of culture and expanded, and cultured for 11 days.
Background: ELISA stands for enzyme-linked immunosorbent assay.

B1: chimeric cytokine receptor GP130-IL6R-ca7R (receptor)
chain: ELLDPCGYISPESPVVQLHSNFTAVCVLKEKCMDYFHVNANYIVWKTNHFTIPKEQYTIINRTASSVTFTDIASLNIQLTCNILTFGQLEQNVYGITIISGLPPEKPKNLSCIVNEGKKMRCEWDGGRETHLETNFTLKSEWATHKFADCKAKRDTPTSCTVDYSTVYFVNIEVWVEAENALGKVTSDHINFDPVYKVKPNPPHNLSVINSEELSSILKLTWTNPSIKSVIILKYNIQYRTKDASTWSQIPPEDTASTRSSFTVQDLKPFTEYVFRIRCMKEDGKGYWSDWSEEASGITYEDRPGSAGSAAGSGEFVDVPPEEPQLSCFRKSPLSNVVCEWGPRSTPSLTTKAVLLVRKFQNSPAEDFQEPCQYSQESQKFSCQLAVPEGDSSFYIVSMCVASSVGSKFSKTQTFQGCGILQPDPPANITVTAVARNPRWLSVTWQDPHSWNSSFYRLRFELRYRAERSKTFTTWMVKDLQHHCVIHDAWSGLRHVVQLRAQEEFGQGEWSEWSPEAMGTPWTESRSPPAENEVSTPMQALTTNKDDDNILFRDSANATSLPVQDSSSVPLPAAANNSSGEMDPILLPPCLTISILSFFSVALLVILACVLWKKRIKPIVWPSLPDHKKTLEHLCKKPRKNLNVSFNPESFLDCQIHRVDDIQARDEVEGFLQDTFPQQLEESEKQRLGGDVQSPNCPSEDVVITPESFGRDSSLTCLAGNVSACDAPILSSSRSLDCRESGKNGPHVYQDLLLSLGTTNSTLPPPFSLQSGILTLNPVAQGQPILTSLGSNQEEAYVTMSSFYQNQ
notes: Expressed on the surface of human CAR-T cells; also called GP130-IL6R-ca7R(WT)
Regarding B1, the binding result was “binds”.
